Test results from patent US20260265379A1 (IMCHECK THERAPEUTICS, published 2026).

Assays:
recombinant human BTN3A1 = target: T1, recombinant human BTN3A1 (human, UniProt O00481 30-254); assay: SPR
T1 construct: Soluble form of the antigen used in SPR; also called rhBTN3A1; recombinant BTN3A1 protein

recombinant human PD-L1 = target: T2, recombinant human PD-L1 (human, UniProt Q9NZQ7 19-239, limits assumed); assay: SPR
T2 construct: Soluble antigen in SPR; also called rhPD-L1

[1] = target: T3, PD-L1 at the surface of transduced cells (UniProt Q9NZQ7 19-290, limits assumed); assay: flow cytometry, CHO-PD-L1 cells
T3 construct: whole, on cells; CHO-PD-L1 cells in flow cytometry, Raji-PD-L1 cells in the reporter assay; also called CHO-PD-L1; Raji-PD-L1
T3 sequence (Q9NZQ7 19-290 limits assumed): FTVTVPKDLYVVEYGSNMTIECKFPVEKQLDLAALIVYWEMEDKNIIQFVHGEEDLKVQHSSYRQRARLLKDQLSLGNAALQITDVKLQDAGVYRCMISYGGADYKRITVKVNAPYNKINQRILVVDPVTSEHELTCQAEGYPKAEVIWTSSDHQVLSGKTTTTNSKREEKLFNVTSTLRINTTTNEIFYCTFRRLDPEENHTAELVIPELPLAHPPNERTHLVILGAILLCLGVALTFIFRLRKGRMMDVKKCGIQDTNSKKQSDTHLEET

[2] = target: T4, BTN3A1 at the surface of HEK-BTN3A1 cells (human, UniProt O00481 30-513); assay: flow cytometry, HEK-BTN3A1 cells
T4 construct: HEK 293T BTN2A/BTN3A KO cells transduced with a BTN3A1 expressing vector
T4 sequence (O00481 30-513 limits assumed): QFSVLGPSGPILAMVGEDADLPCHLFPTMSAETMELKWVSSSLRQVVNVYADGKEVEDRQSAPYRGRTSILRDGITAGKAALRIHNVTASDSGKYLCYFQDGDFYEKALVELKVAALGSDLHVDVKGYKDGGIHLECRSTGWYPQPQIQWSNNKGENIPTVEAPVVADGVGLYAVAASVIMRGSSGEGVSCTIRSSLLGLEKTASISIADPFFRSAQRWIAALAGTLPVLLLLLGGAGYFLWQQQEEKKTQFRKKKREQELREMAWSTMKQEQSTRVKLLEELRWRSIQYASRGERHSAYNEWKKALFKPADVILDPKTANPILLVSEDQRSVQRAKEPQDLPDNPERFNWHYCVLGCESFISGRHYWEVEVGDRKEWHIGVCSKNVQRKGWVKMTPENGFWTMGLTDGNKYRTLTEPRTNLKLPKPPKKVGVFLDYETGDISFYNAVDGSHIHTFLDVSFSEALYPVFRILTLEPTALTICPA

recombinant human PD-1 = target: T5, recombinant human PD-1 (human, UniProt Q15116 25-167, limits assumed); assay: SPR
T5 construct: Soluble antigen in SPR; also called rhPD-1
T5 sequence (Q15116 25-167 limits assumed): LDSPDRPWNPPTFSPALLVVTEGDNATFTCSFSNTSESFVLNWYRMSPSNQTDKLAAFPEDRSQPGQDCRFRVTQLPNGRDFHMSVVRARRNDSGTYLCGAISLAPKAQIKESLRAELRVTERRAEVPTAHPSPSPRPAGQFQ

[3] = target: T6, PD-1 at the surface of Jurkat-PD-1 cells (human, UniProt Q15116 25-288); assay: cell-based or functional assay
T6 sequence (Q15116 25-288): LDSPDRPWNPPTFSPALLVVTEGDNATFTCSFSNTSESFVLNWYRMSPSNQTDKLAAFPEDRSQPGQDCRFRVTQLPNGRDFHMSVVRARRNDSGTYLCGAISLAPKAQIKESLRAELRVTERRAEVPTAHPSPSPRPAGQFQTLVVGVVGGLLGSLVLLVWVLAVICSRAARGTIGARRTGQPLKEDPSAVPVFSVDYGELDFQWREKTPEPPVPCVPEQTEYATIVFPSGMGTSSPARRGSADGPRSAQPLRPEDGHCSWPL

[4] = target: T6, PD-1 at the surface of Jurkat-PD-1 cells; assay: flow cytometry, Jurkat-PD-1 cells

T2 sequence (Q9NZQ7 19-239 limits assumed): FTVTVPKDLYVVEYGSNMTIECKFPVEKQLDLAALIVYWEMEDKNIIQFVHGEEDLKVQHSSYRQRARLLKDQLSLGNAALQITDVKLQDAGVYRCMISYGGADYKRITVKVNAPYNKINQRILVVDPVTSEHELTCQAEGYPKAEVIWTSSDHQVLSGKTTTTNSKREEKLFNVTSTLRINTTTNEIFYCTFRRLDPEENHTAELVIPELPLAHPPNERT
T1 sequence (O00481 30-254 limits assumed): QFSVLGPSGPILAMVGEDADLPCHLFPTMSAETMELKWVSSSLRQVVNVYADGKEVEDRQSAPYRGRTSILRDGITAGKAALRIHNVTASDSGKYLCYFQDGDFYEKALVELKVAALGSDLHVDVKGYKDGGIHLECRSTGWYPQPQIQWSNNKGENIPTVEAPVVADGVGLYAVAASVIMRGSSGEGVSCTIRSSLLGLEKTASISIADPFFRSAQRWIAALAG

Binder	Kd (recombinant human BTN3A1) [pM]	Kd (recombinant human PD-L1) [pM]	MFI at 10 nM [1] [MFI]	MFI at 100 nM [1] [MFI]	MFI at 10 nM [2] [MFI]	MFI at 100 nM [2] [MFI]	Kd (recombinant human PD-1) [pM]	Jurkat-PD-1 activation at 10 nM [3]	Jurkat-PD-1 activation at 100 nM [3]	MFI at 10 nM [4] [MFI]	MFI at 100 nM [4] [MFI]
bsAb020 (bispecific antibody, IgG anti-PD-L1, scFv anti-BTN3A) heavy: DIQMTQSPSSLSASVGDRVTITCHASQNINVWLSWYQQKPGKAPKLLIYKASNLHTGVPSRFTGSGSGTDFTFTISSLQPEDIATYYCQQGQTYPYTFGQGTKLEIKGGGGSGGGGSGGGGSGGGGSQVQLVQSGAEVKKPGASVKLSCKASGYIFTRYYMYWVKQRPGQGLEWIGEINPNNGGTKFNEKFKNRATLTVDKSISTAYMELSRLRSDDTAVYYCSREDDYDGTPFAMDYWGQGTLVTVSSGGGGSGGGGSGGGGSGGGGSEVQLVESGGGLVQPGGSLRLSCAASGFTFSRYWMSWVRQAPGKGLEWVANIKQDGSEKYYVDSVKGRFTISRDNAKNSLYLQMNSLRAEDTAVYYCAREGGWFGELAFDYWGQGTLVTVSSASTKGPSVFPLAPSSKSTSGGTAALGCLVKDYFPEPVTVSWNSGALTSGVHTFPAVLQSSGLYSLSSVVTVPSSSLGTQTYICNVNHKPSNTKVDKRVEPKSCDKTHTCPPCPAPEFEGGPSVFLFPPKPKDTLMISRTPEVTCVVVDVSHEDPEVKFNWYVDGVEVHNAKTKPREEQYNSTYRVVSVLTVLHQDWLNGKEYKCKVSNKALPASIEKTISKAKGQPREPQVYTLPPSREEMTKNQVSLTCLVKGFYPSDIAVEWESNGQPENNYKTTPPVLDSDGSFFLYSKLTVDKSRWQQGNVFSCSVMHEALHNHYTQKSLSLSPG light: EIVLTQSPGTLSLSPGERATLSCRASQRVSSSYLAWYQQKPGQAPRLLIYDASSRATGIPDRFSGSGSGTDFTLTISRLEPEDFAVYYCQQYGSLPWTFGQGTKVEIKRTVAAPSVFIFPPSDEQLKSGTASVVCLLNNFYPREAKVQWKVDNALQSGNSQESVTEQDSKDSTYSLSSTLTLSKADYEKHKVYACEVTHQGLSSPVTKSFNRGEC	114	73	746000	784000	997000	1.5e+06	–	–	–	–	–
bsAb024 (bispecific antibody, IgG anti-PD-L1, scFv anti-BTN3A) heavy: QVQLVQSGAEVKKPGASVKLSCKASGYIFTRYYMYWVKQRPGQGLEWIGEINPNNGGTKFNEKFKNRATLTVDKSISTAYMELSRLRSDDTAVYYCSREDDYDGTPFAMDYWGQGTLVTVSSGGGGSGGGGSGGGGSGGGGSDIQMTQSPSSLSASVGDRVTITCHASQNINVWLSWYQQKPGKAPKLLIYKASNLHTGVPSRFTGSGSGTDFTFTISSLQPEDIATYYCQQGQTYPYTFGQGTKLEIKGGGGSGGGGSGGGGSGGGGSEVQLVESGGGLVQPGGSLRLSCAASGFTFSRYWMSWVRQAPGKGLEWVANIKQDGSEKYYVDSVKGRFTISRDNAKNSLYLQMNSLRAEDTAVYYCAREGGWFGELAFDYWGQGTLVTVSSASTKGPSVFPLAPSSKSTSGGTAALGCLVKDYFPEPVTVSWNSGALTSGVHTFPAVLQSSGLYSLSSVVTVPSSSLGTQTYICNVNHKPSNTKVDKRVEPKSCDKTHTCPPCPAPEFEGGPSVFLFPPKPKDTLMISRTPEVTCVVVDVSHEDPEVKFNWYVDGVEVHNAKTKPREEQYNSTYRVVSVLTVLHQDWLNGKEYKCKVSNKALPASIEKTISKAKGQPREPQVYTLPPSREEMTKNQVSLTCLVKGFYPSDIAVEWESNGQPENNYKTTPPVLDSDGSFFLYSKLTVDKSRWQQGNVFSCSVMHEALHNHYTQKSLSLSPG light: EIVLTQSPGTLSLSPGERATLSCRASQRVSSSYLAWYQQKPGQAPRLLIYDASSRATGIPDRFSGSGSGTDFTLTISRLEPEDFAVYYCQQYGSLPWTFGQGTKVEIKRTVAAPSVFIFPPSDEQLKSGTASVVCLLNNFYPREAKVQWKVDNALQSGNSQESVTEQDSKDSTYSLSSTLTLSKADYEKHKVYACEVTHQGLSSPVTKSFNRGEC	73	65	762000	794000	–	1.66e+06	–	–	–	–	–
bsAb047 (bispecific antibody, IgG anti-BTN3A, one scFv anti-PD-1; not shown: IgG1 CH1-hinge-CH2-CH3) heavy 1: EIVLTQSPATLSLSPGERATLSCRASKGVSTSGYSYLHWYQQKPGQAPRLLIYLASYLESGVPARFSGSGSGTDFTLTISSLEPEDFAVYYCQHSRDLPLTFGGGTKVEIKGGGGSGGGGSGGGGSGGGGSQVQLVQSGVEVKKPGASVKVSCKASGYTFTNYYMYWVRQAPGQGLEWMGGINPSNGGTNFNEKFKNRVTLTTDSSTTTAYMELKSLQFDDTAVYYCARRDYRFDMGFDYWGQGTTVTVSSGGGGSGGGGSGGGGSGGGGSQVQLVQSGAEVKKPGASVKLSCKASGYIFTRYYMYWVKQRPGQGLEWIGEINPNNGGTKFNEKFKNRATLTVDKSISTAYMELSRLRSDDTAVYYCSREDDYDGTPFAMDYWGQGTLVTVSS heavy 2: QVQLVQSGAEVKKPGASVKLSCKASGYIFTRYYMYWVKQRPGQGLEWIGEINPNNGGTKFNEKFKNRATLTVDKSISTAYMELSRLRSDDTAVYYCSREDDYDGTPFAMDYWGQGTLVTVSS light: not shown	168	–	–	–	536000	866000	1400	3.1 fold-change to medium	8.3 fold-change to medium	264000	364000
bsAb049 (bispecific antibody, IgG anti-BTN3A, one scFv anti-PD-1; not shown: IgG1 CH1-hinge-CH2-CH3) heavy 1: QVQLVQSGVEVKKPGASVKVSCKASGYTFTNYYMYWVRQAPGQGLEWMGGINPSNGGTNFNEKFKNRVTLTTDSSTTTAYMELKSLQFDDTAVYYCARRDYRFDMGFDYWGQGTTVTVSSGGGGSGGGGSGGGGSGGGGSEIVLTQSPATLSLSPGERATLSCRASKGVSTSGYSYLHWYQQKPGQAPRLLIYLASYLESGVPARFSGSGSGTDFTLTISSLEPEDFAVYYCQHSRDLPLTFGGGTKVEIKGGGGSGGGGSGGGGSGGGGSQVQLVQSGAEVKKPGASVKLSCKASGYIFTRYYMYWVKQRPGQGLEWIGEINPNNGGTKFNEKFKNRATLTVDKSISTAYMELSRLRSDDTAVYYCSREDDYDGTPFAMDYWGQGTLVTVSS heavy 2: QVQLVQSGAEVKKPGASVKLSCKASGYIFTRYYMYWVKQRPGQGLEWIGEINPNNGGTKFNEKFKNRATLTVDKSISTAYMELSRLRSDDTAVYYCSREDDYDGTPFAMDYWGQGTLVTVSS light: not shown	101	–	–	–	460000	740000	856	1.3 fold-change to medium	2.3 fold-change to medium	175000	376000
bsAb051 (bispecific antibody, one Fab arm anti-BTN3A, two scFv anti-PD-L1; not shown: IgG1 CH1-hinge-CH2-CH3; CH2-CH3 (Fc)) heavy (part 1 of 2): QVQLVQSGAEVKKPGASVKLSCKASGYIFTRYYMYWVKQRPGQGLEWIGEINPNNGGTKFNEKFKNRATLTVDKSISTAYMELSRLRSDDTAVYYCSREDDYDGTPFAMDYWGQGTLVTVSS heavy (part 2 of 2): GGGGSGGGGSGGGGSGGGGSEVQLVESGGGLVQPGGSLRLSCAASGFTFSRYWMSWVRQAPGKGLEWVANIKQDGSEKYYVDSVKGRFTISRDNAKNSLYLQMNSLRAEDTAVYYCAREGGWFGELAFDYWGQGTLVTVSSGGGGSGGGGSGGGGSGGGGSEIVLTQSPGTLSLSPGERATLSCRASQRVSSSYLAWYQQKPGQAPRLLIYDASSRATGIPDRFSGSGSGTDFTLTISRLEPEDFAVYYCQQYGSLPWTFGQGTKVEIK heavy: GGGGSGGGGSGGGGSGGGGSEVQLVESGGGLVQPGGSLRLSCAASGFTFSRYWMSWVRQAPGKGLEWVANIKQDGSEKYYVDSVKGRFTISRDNAKNSLYLQMNSLRAEDTAVYYCAREGGWFGELAFDYWGQGTLVTVSSGGGGSGGGGSGGGGSGGGGSEIVLTQSPGTLSLSPGERATLSCRASQRVSSSYLAWYQQKPGQAPRLLIYDASSRATGIPDRFSGSGSGTDFTLTISRLEPEDFAVYYCQQYGSLPWTFGQGTKVEIK light: not shown	95	33	578000	597000	340000	792000	–	–	–	–	–

More lines, now with the values ahead:

Kd (recombinant human BTN3A1) [pM]	Kd (recombinant human PD-L1) [pM]	MFI at 10 nM [1] [MFI]	MFI at 100 nM [1] [MFI]	MFI at 10 nM [2] [MFI]	MFI at 100 nM [2] [MFI]	Kd (recombinant human PD-1) [pM]	Jurkat-PD-1 activation at 10 nM [3]	Jurkat-PD-1 activation at 100 nM [3]	MFI at 10 nM [4] [MFI]	MFI at 100 nM [4] [MFI]	Binder
65	–	–	–	519000	1e+06	2000	1.5 fold-change to medium	3.4 fold-change to medium	–	334000	bsAb056 (bispecific antibody, one Fab arm anti-BTN3A, one scFv anti-PD-1; not shown: CH2-CH3 (Fc); IgG1 CH1-hinge-CH2-CH3) heavy 1: GGGGSGGGGSGGGGSGGGGSQVQLVQSGVEVKKPGASVKVSCKASGYTFTNYYMYWVRQAPGQGLEWMGGINPSNGGTNFNEKFKNRVTLTTDSSTTTAYMELKSLQFDDTAVYYCARRDYRFDMGFDYWGQGTTVTVSSGGGGSGGGGSGGGGSGGGGSEIVLTQSPATLSLSPGERATLSCRASKGVSTSGYSYLHWYQQKPGQAPRLLIYLASYLESGVPARFSGSGSGTDFTLTISSLEPEDFAVYYCQHSRDLPLTFGGGTKVEIK heavy 2: QVQLVQSGAEVKKPGASVKLSCKASGYIFTRYYMYWVKQRPGQGLEWIGEINPNNGGTKFNEKFKNRATLTVDKSISTAYMELSRLRSDDTAVYYCSREDDYDGTPFAMDYWGQGTLVTVSS light: not shown
69	–	–	–	321000	785000	1800	5.3 fold-change to medium	7.6 fold-change to medium	185000	366000	bsAb052 (bispecific antibody, one Fab arm anti-BTN3A, two scFv anti-PD-1; not shown: IgG1 CH1-hinge-CH2-CH3; CH2-CH3 (Fc)) heavy (part 1 of 2): QVQLVQSGAEVKKPGASVKLSCKASGYIFTRYYMYWVKQRPGQGLEWIGEINPNNGGTKFNEKFKNRATLTVDKSISTAYMELSRLRSDDTAVYYCSREDDYDGTPFAMDYWGQGTLVTVSS heavy (part 2 of 2): GGGGSGGGGSGGGGSGGGGSQVQLVQSGVEVKKPGASVKVSCKASGYTFTNYYMYWVRQAPGQGLEWMGGINPSNGGTNFNEKFKNRVTLTTDSSTTTAYMELKSLQFDDTAVYYCARRDYRFDMGFDYWGQGTTVTVSSGGGGSGGGGSGGGGSGGGGSEIVLTQSPATLSLSPGERATLSCRASKGVSTSGYSYLHWYQQKPGQAPRLLIYLASYLESGVPARFSGSGSGTDFTLTISSLEPEDFAVYYCQHSRDLPLTFGGGTKVEIK heavy: GGGGSGGGGSGGGGSGGGGSQVQLVQSGVEVKKPGASVKVSCKASGYTFTNYYMYWVRQAPGQGLEWMGGINPSNGGTNFNEKFKNRVTLTTDSSTTTAYMELKSLQFDDTAVYYCARRDYRFDMGFDYWGQGTTVTVSSGGGGSGGGGSGGGGSGGGGSEIVLTQSPATLSLSPGERATLSCRASKGVSTSGYSYLHWYQQKPGQAPRLLIYLASYLESGVPARFSGSGSGTDFTLTISSLEPEDFAVYYCQHSRDLPLTFGGGTKVEIK light: not shown
